Assay results taken from article PMC5501727, “The Structure of the R2TP Complex Defines a Platform for Recruiting Diverse Client Proteins to the HSP90 Molecular Chaperone System” (Structure(London, England:1993), 2017).
One block for each binder: values may come before it.

Experiments:
[1] = target: T1, Tah1p-Pih1p complex (yeast, UniProt P25638 1-111; P38768 1-344); experiment: AUC; sedimentation velocity, 43,000 rpm, samples 2 to 4 μM in 20 mM HEPES pH 7.8, 140 mM NaCl, 5 mM MgCl2, 0.5 mM EDTA, 0.5 mM TCEP; TP alone, R2 alone, and R2 mixed with TP at 1:2.4 molar ratio; details: both partners purified
T1 construct: Tah1p, TPR domain protein of yeast R2TP; gene cloned into a modified pET28b (NdeI/BamHI) giving 2xStrep-tagged Tah1p; Pih1p of yeast R2TP; PIH1P gene cloned into p3E (modified pGEX6p) with NdeI and HindIII; Heterodimer of 53 kDa by sedimentation velocity; also called TP; 2xStrep-Tah1p-Pih1p
T1 sequence (looked up) 1: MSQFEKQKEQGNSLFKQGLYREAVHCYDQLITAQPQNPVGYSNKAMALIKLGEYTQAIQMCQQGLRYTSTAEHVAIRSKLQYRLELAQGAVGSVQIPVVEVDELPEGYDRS
T1 sequence (looked up) 2: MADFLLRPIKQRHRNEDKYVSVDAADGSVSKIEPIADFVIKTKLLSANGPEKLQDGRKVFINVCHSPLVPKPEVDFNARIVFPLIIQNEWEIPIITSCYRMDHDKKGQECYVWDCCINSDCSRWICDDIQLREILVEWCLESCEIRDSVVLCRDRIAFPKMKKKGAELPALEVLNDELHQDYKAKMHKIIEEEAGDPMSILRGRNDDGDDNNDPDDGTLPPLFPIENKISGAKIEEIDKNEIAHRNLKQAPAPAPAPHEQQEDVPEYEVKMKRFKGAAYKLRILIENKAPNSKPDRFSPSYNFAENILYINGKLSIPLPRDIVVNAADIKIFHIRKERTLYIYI

[2] = target: T2, Rvb2p (Saccharomyces cerevisiae, UniProt Q12464 1-471); experiment: as above; details: both partners purified
T2 construct: gene (Genscript) cloned into a modified pRSETA (containing 3X Myc-tags) with NheI and HindIII; also called Rvb2p-only complex; source: Rosetta (DE3) pLysS, co-expressed with Rvb1p, purified (Talon, gel filtration)

stoichiometry N [1]: 1 Rvb1p-Rvb2p hetero-hexamer per Tah1p-Pih1p complex
B1: Rvb1p-Rvb2p complex (hetero-hexamer) (complex, Saccharomyces cerevisiae)
chain 1: MVAISEVKENPGVNSSNSGAVTRTAAHTHIKGLGLDESGVAKRVEGGFVGQIEAREACGVIVDLIKAKKMSGRAILLAGGPSTGKTALALAISQELGPKVPFCPLVGSELYSVEVKKTETLMENFRRAIGLRIKETKEVYEGEVTELTPEDAENPLGGYGKTISHVIVGLKSAKGTKTLRLDPTIYESIQREKVSIGDVIYIEANTGAVKRVGRSDAYATEFDLETEEYVPLPKGEVHKKKEIVQDVTLHDLDVANARPQGGQDVISMMGQLLKPKKTEITEKLRQEVNKVVAKYIDQGVAELIPGVLFIDEVNMLDIEIFTYLNKALESNIAPVVVLASNRGMTTVRGTEDVISPHGVPPDLIDRLLIVRTLPYDKDEIRTIIERRATVERLQVESSALDLLATMGTETSLRYALQLLAPCGILAQTSNRKEIVVNDVNEAKLLFLDAKRSTKILETSANYL
chain 2: MSIQTSDPNETSDLKSLSLIAAHSHITGLGLDENLQPRPTSEGMVGQLQARRAAGVILKMVQNGTIAGRAVLVAGPPSTGKTALAMGVSQSLGKDVPFTAIAGSEIFSLELSKTEALTQAFRKSIGIKIKEETELIEGEVVEIQIDRSITGGHKQGKLTIKTTDMETIYELGNKMIDGLTKEKVLAGDVISIDKASGKITKLGRSFARSRDYDAMGADTRFVQCPEGELQKRKTVVHTVSLHEIDVINSRTQGFLALFTGDTGEIRSEVRDQINTKVAEWKEEGKAEIVPGVLFIDEVHMLDIECFSFINRALEDEFAPIVMMATNRGVSKTRGTNYKSPHGLPLDLLDRSIIITTKSYNEQEIKTILSIRAQEEEVELSSDALDLLTKTGVETSLRYSSNLISVAQQIAMKRKNNTVEVEDVKRAYLLFLDSARSVKYVQENESQYIDDQGNVQISIAKSADPDAMDTTE
notes: Rvb1p, AAA+ ATPase of yeast R2TP; gene (Genscript) cloned into pET28b with NdeI and BamHI; gene (Genscript) cloned into a modified pRSETA (containing 3X Myc-tags) with NheI and HindIII; also called R2; Rvb1p-Rvb2p hexamer; copies: 3 + 3

stoichiometry N [2]: 1 Rvb1p per Rvb2p (3:3)
B2: Rvb1p (natural protein, Saccharomyces cerevisiae, UniProt Q03940 1-463, looked up)
chain: B1 chain 1
notes: Rvb1p, AAA+ ATPase of yeast R2TP; gene (Genscript) cloned into pET28b with NdeI and BamHI; also called Rvb1p-only complex
